From the supplement of paper PMC9112550, “Optimization of the antimicrobial peptide Bac7 by deep mutational scanning” (BMC Biology, 2022)

test system: Escherichia coli TOP10; assay: shrunken log2 fold change of peptide-encoding DNA abundance (4.5 h post-induction vs induction); higher = less antimicrobial activity (less host growth inhibition); conditions: time post-induction: 4.5 h; library: site-saturation at positions 5, 18, 19, 20
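Further: peptides expressed intracellularly from a pBAD plasmid library in pooled LB shake-flask culture, induced with 0.3% L-arabinose, DNA abundance read by NGS, three biological replicates, DESeq2 with apeglm shrinkage.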

Row | Sequence | shrunken log2 fold change
1 | RRIRGRPPRLPRPRPRPCKFPRP | 0.125
2 | RRIRWRPPRLPRPRPRPTWEPRP | 0.314
3 | RRIRLRPPRLPRPRPRPSTDPRP | -0.356
4 | RRIRARPPRLPRPRPRPMRCPRP | 0.162
5 | RRIRTRPPRLPRPRPRPERKPRP | 0.0268
6 | RRIRNRPPRLPRPRPRPLRMPRP | 0.361
7 | RRIRWRPPRLPRPRPRPGWTPRP | 0.253
8 | RRIRYRPPRLPRPRPRPHVKPRP | -0.00472
9 | RRIRVRPPRLPRPRPRPAPAPRP | 0.626
10 | RRIRGRPPRLPRPRPRPLLQPRP | 0.486
11 | RRIRYRPPRLPRPRPRPIDWPRP | 0.0205
12 | RRIRNRPPRLPRPRPRPTCHPRP | -0.643
13 | RRIRKRPPRLPRPRPRPMYLPRP | 0.239
14 | RRIRPRPPRLPRPRPRPCKVPRP | -0.348
15 | RRIRQRPPRLPRPRPRPHNGPRP | -0.072
16 | RRIRPRPPRLPRPRPRPNDYPRP | -0.307
17 | RRIRHRPPRLPRPRPRPDNYPRP | -0.0274
18 | RRIRCRPPRLPRPRPRPDLMPRP | -0.424
19 | RRIRDRPPRLPRPRPRPEFGPRP | 0.914
20 | RRIRRRPPRLPRPRPRPSEMPRP | 0.0772
21 | RRIRLRPPRLPRPRPRPWHVPRP | -0.121
22 | RRIRERPPRLPRPRPRPASSPRP | 0.0151
23 | RRIRMRPPRLPRPRPRPVQMPRP | 0.247
24 | RRIRKRPPRLPRPRPRPHGCPRP | 0.352
25 | RRIRWRPPRLPRPRPRPHIWPRP | -0.131

Row | Sequence | shrunken log2 fold change
26 | RRIRYRPPRLPRPRPRPCVYPRP | -0.197
27 | RRIRTRPPRLPRPRPRPVIGPRP | 0.13
28 | RRIRGRPPRLPRPRPRPMHKPRP | 0.866
29 | RRIRIRPPRLPRPRPRPPQAPRP | 0.639
30 | RRIRYRPPRLPRPRPRPRHRPRP | 0.0433
31 | RRIRLRPPRLPRPRPRPHCWPRP | 0.109
32 | RRIRWRPPRLPRPRPRPAPQPRP | 0.743
33 | RRIRWRPPRLPRPRPRPQNVPRP | -0.0645
34 | RRIRPRPPRLPRPRPRPLMPPRP | -0.188
35 | RRIRIRPPRLPRPRPRPCFQPRP | -0.391
36 | RRIRVRPPRLPRPRPRPNHGPRP | -0.0115
37 | RRIRERPPRLPRPRPRPINMPRP | -0.261
38 | RRIRTRPPRLPRPRPRPFAWPRP | -0.0156
39 | RRIRHRPPRLPRPRPRPDMAPRP | -0.0459
40 | RRIRRRPPRLPRPRPRPHPEPRP | 0.0463
41 | RRIRHRPPRLPRPRPRPIWGPRP | 0.226
42 | RRIRFRPPRLPRPRPRPLWIPRP | -0.624
43 | RRIRVRPPRLPRPRPRPVNTPRP | -0.236
44 | RRIRKRPPRLPRPRPRPTFAPRP | 0.673
45 | RRIRVRPPRLPRPRPRPFPVPRP | -0.0106
46 | RRIRCRPPRLPRPRPRPFAEPRP | -0.0347
47 | RRIRHRPPRLPRPRPRPGALPRP | -0.00348
48 | RRIRERPPRLPRPRPRPSNDPRP | -0.247
49 | RRIRIRPPRLPRPRPRPYLYPRP | -0.544
50 | RRIRIRPPRLPRPRPRPFWFPRP | -0.684

Row | Sequence | shrunken log2 fold change
51 | RRIRHRPPRLPRPRPRPFEIPRP | -0.0931
52 | RRIRFRPPRLPRPRPRPPCYPRP | -0.227
53 | RRIRKRPPRLPRPRPRPDGRPRP | 0.0261
54 | RRIRQRPPRLPRPRPRPLRVPRP | 0.298
55 | RRIRERPPRLPRPRPRPYYNPRP | -0.675
56 | RRIRPRPPRLPRPRPRPGGQPRP | -0.0466
57 | RRIRERPPRLPRPRPRPEQKPRP | -0.017
58 | RRIRERPPRLPRPRPRPIKMPRP | -0.347
59 | RRIRIRPPRLPRPRPRPLARPRP | 0.346
60 | RRIRVRPPRLPRPRPRPQSIPRP | -0.176
61 | RRIRQRPPRLPRPRPRPYKYPRP | -1.49
62 | RRIRWRPPRLPRPRPRPQVTPRP | -0.0309
63 | RRIRVRPPRLPRPRPRPRYKPRP | -0.131
64 | RRIRHRPPRLPRPRPRPCKYPRP | 0.0259
65 | RRIRSRPPRLPRPRPRPWITPRP | -0.305
66 | RRIRFRPPRLPRPRPRPPYMPRP | -0.43
67 | RRIRTRPPRLPRPRPRPDWSPRP | 0.163
68 | RRIRTRPPRLPRPRPRPWCRPRP | -0.263
69 | RRIRDRPPRLPRPRPRPRCDPRP | -0.0149
70 | RRIRWRPPRLPRPRPRPNFSPRP | -0.305
71 | RRIRHRPPRLPRPRPRPDFNPRP | -0.607
72 | RRIRRRPPRLPRPRPRPCDEPRP | 0.197
73 | RRIRWRPPRLPRPRPRPMTLPRP | -0.0611
74 | RRIRGRPPRLPRPRPRPKGPPRP | 0.331
75 | RRIRWRPPRLPRPRPRPETDPRP | 0.773

Row | Sequence | shrunken log2 fold change
76 | RRIRCRPPRLPRPRPRPVMDPRP | -0.0102
77 | RRIRCRPPRLPRPRPRPCVHPRP | -0.0561
78 | RRIRTRPPRLPRPRPRPVESPRP | 0.141
79 | RRIRPRPPRLPRPRPRPNWHPRP | -0.0472
80 | RRIRQRPPRLPRPRPRPVVSPRP | -0.179
81 | RRIRWRPPRLPRPRPRPGTKPRP | 0.139
82 | RRIRQRPPRLPRPRPRPMLMPRP | -0.0108
83 | RRIRERPPRLPRPRPRPGPLPRP | -0.127
84 | RRIRFRPPRLPRPRPRPQNQPRP | -0.485
85 | RRIRGRPPRLPRPRPRPEKSPRP | 0.0928
86 | RRIRSRPPRLPRPRPRPMKIPRP | 0.108
87 | RRIRNRPPRLPRPRPRPCEYPRP | -0.0196
88 | RRIRRRPPRLPRPRPRPVGFPRP | 0.362
89 | RRIRARPPRLPRPRPRPSFSPRP | -0.134
90 | RRIRYRPPRLPRPRPRPRWWPRP | 0.189
91 | RRIRSRPPRLPRPRPRPKRMPRP | 0.00691
92 | RRIRRRPPRLPRPRPRPGFEPRP | 0.293
93 | RRIRDRPPRLPRPRPRPCDVPRP | -0.0231
94 | RRIRTRPPRLPRPRPRPIKIPRP | -0.426
95 | RRIRERPPRLPRPRPRPHKDPRP | 0.144
96 | RRIRGRPPRLPRPRPRPDWVPRP | 0.287
97 | RRIRLRPPRLPRPRPRPFGTPRP | -0.424
98 | RRIRGRPPRLPRPRPRPPNKPRP | 0.528
99 | RRIRIRPPRLPRPRPRPKHTPRP | -0.329
100 | RRIRSRPPRLPRPRPRPFYKPRP | -0.426

Row | Sequence | shrunken log2 fold change
101 | RRIRERPPRLPRPRPRPVYRPRP | -0.514
102 | RRIRHRPPRLPRPRPRPHRNPRP | -0.117
103 | RRIRCRPPRLPRPRPRPRNIPRP | -0.33
104 | RRIRTRPPRLPRPRPRPLDFPRP | -0.19
105 | RRIRNRPPRLPRPRPRPDVNPRP | -0.00804
106 | RRIRNRPPRLPRPRPRPHTRPRP | 0.0907
107 | RRIRRRPPRLPRPRPRPRYRPRP | -0.0166
108 | RRIRIRPPRLPRPRPRPGSSPRP | -0.486
109 | RRIRDRPPRLPRPRPRPYHMPRP | -0.00968
110 | RRIRPRPPRLPRPRPRPSCVPRP | -0.368
111 | RRIRERPPRLPRPRPRPMPLPRP | 0.000847
112 | RRIRQRPPRLPRPRPRPEWTPRP | -0.00618
113 | RRIRTRPPRLPRPRPRPYKAPRP | -1.77
114 | RRIRVRPPRLPRPRPRPSWCPRP | 0.123
115 | RRIRFRPPRLPRPRPRPQQRPRP | 0.061
116 | RRIRYRPPRLPRPRPRPQWRPRP | 0.0697
117 | RRIRFRPPRLPRPRPRPKNCPRP | 1.35
118 | RRIRNRPPRLPRPRPRPPRNPRP | 0.196
119 | RRIRKRPPRLPRPRPRPQQTPRP | -0.0533
120 | RRIRHRPPRLPRPRPRPGAVPRP | 0.433
121 | RRIRERPPRLPRPRPRPQSTPRP | -0.319
122 | RRIRNRPPRLPRPRPRPKVSPRP | 0.264
123 | RRIRKRPPRLPRPRPRPPAVPRP | 0.847
124 | RRIRTRPPRLPRPRPRPSSVPRP | -0.139
125 | RRIRPRPPRLPRPRPRPCEFPRP | -0.0795

Row | Sequence | shrunken log2 fold change
126 | RRIRCRPPRLPRPRPRPDYKPRP | -0.375
127 | RRIRSRPPRLPRPRPRPTIQPRP | -0.305
128 | RRIRTRPPRLPRPRPRPCKFPRP | -0.298
129 | RRIRNRPPRLPRPRPRPEELPRP | 0.678
130 | RRIRARPPRLPRPRPRPVWFPRP | 0.334
131 | RRIRPRPPRLPRPRPRPSLHPRP | -0.21
132 | RRIRSRPPRLPRPRPRPYCFPRP | -0.544
133 | RRIRPRPPRLPRPRPRPECLPRP | 0.0299
134 | RRIRYRPPRLPRPRPRPNYDPRP | -0.746
135 | RRIRKRPPRLPRPRPRPQMMPRP | -0.0245
136 | RRIRMRPPRLPRPRPRPAGDPRP | 0.882
137 | RRIRKRPPRLPRPRPRPHDWPRP | 0.31
138 | RRIRNRPPRLPRPRPRPGLTPRP | -0.0698
139 | RRIRIRPPRLPRPRPRPHHWPRP | -0.18
140 | RRIRFRPPRLPRPRPRPELEPRP | 0.537
141 | RRIRMRPPRLPRPRPRPRWQPRP | 0.146
142 | RRIRKRPPRLPRPRPRPTKWPRP | 0.172
143 | RRIRARPPRLPRPRPRPTEHPRP | 0.46
144 | RRIRARPPRLPRPRPRPGPNPRP | 0.66
145 | RRIRARPPRLPRPRPRPHQLPRP | 0.086
146 | RRIRTRPPRLPRPRPRPMRYPRP | -0.0953
147 | RRIRARPPRLPRPRPRPQSAPRP | 0.153
148 | RRIRFRPPRLPRPRPRPNTKPRP | -0.323
149 | RRIRGRPPRLPRPRPRPQHPPRP | 0.426
150 | RRIRSRPPRLPRPRPRPTWMPRP | 0.0331
